In the RNAGym collection of RNA variant scans (doi:10.1073/pnas.2313332121):
This sample holds only a part of the variants without activity.

B1: TPR 5TU (parent)
chain: GGAUCUUCUCGAUCUAACAAAAAAGACAAAUCUGCCACAAAGCUUGAGAGCAUCUUCGGAUGCAGAGGCGGCAGCCUUCGGUGGCGCGAUAGCGCCAACGUUCUCAACUAUGACACGCAAAACGCGUGCUCCGUUGAAUGGAGUUUAUCAUG

Variants of: B1
Test: polymerase ribozyme fitness, log enrichment relative to wild type (log ratio); higher = more active; in vitro selection for triplet polymerase activity
Summary of the method: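 A single round of triplicate in vitro selection, including frozen incubation at −7 °C, was applied to PCR-built, transcribed mutant libraries of each subunit of a heterodimeric triplet polymerase ribozyme. Illumina sequencing of input and output libraries retained genotypes with ≥10 input reads and ≥1 read per output. Fitness is the base-2 logarithm of genotype enrichment divided by wild-type enrichment, from inverse-variance-weighted replicate averages.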

| Variant | polymerase ribozyme fitness (log ratio) |
| --- | --- |
| U45G U56A | 0.0147 |
| U45A C63U A121C | -3.18 |
| C43U C54G G92A U148G C149U | ≤ -4.2 |
| U45A A49C G84A | ≤ -4.2 |
| U44A G58A C93U C96G A97G A98U A119G U144C A150U | ≤ -4.2 |
| U44G G58C G59C U61A G94C | ≤ -4.2 |
| C43U C57G G70A A89G C93U | ≤ -4.2 |
| G46A C76A G86U A121U U144G | ≤ -4.2 |
| C43U C54U U56G U78C C85G C93G G133A G136U G140U | ≤ -4.2 |
| U44A U144C | -3.62 |
| U44G A60U C99G U111G G141C | ≤ -4.2 |
| U44A G48A G58C G83A | ≤ -4.2 |
| C43U G48A C57G C85U | ≤ -4.2 |
| C43U A73G C79A U134A | ≤ -4.2 |
| G46A G68C A89C G124A | ≤ -4.2 |
| U45A G46C U56A G84U G88U U90G C99A | ≤ -4.2 |
| U45G A66U U77C A107G G117U | ≤ -4.2 |
| U45A C85A C93U C96U C118A C132A | ≤ -4.2 |
| G46A U135G | -3.27 |
| U44A C85U U139C | ≤ -4.2 |
| U45G C57A C93A G124A | -3.64 |

| Variant | polymerase ribozyme fitness (log ratio) |
| --- | --- |
| C43U C51A C85U A107U U135C | ≤ -4.2 |
| U45G C54A C87G A121U C123G | ≤ -4.2 |
| U45A A60G G94A C95G U144C U151G | ≤ -4.2 |
| G46A C54A C76U G143A | ≤ -4.2 |
| U44G G143C | ≤ -4.2 |
| U45G C54U A110G | ≤ -4.2 |
| U45A C85A C87G C114A A137C | ≤ -4.2 |
| U44A C87A G126U | ≤ -4.2 |
| U45G G48U A60U C72A G80C C96A U102G | ≤ -4.2 |
| U45G A52G U82C U101G C131U | -3.32 |
| U44C C96U C103G A115C | -4.19 |
| U44A C75U C76G U77G G92U A115U G140A G152C | ≤ -4.2 |
| U44C G59A A91U | -4 |
| U45G G86U C87A | ≤ -4.2 |
| G46A A97C C103G C123A G141C A147C C149A | ≤ -4.2 |
| U44G C75U A89G | ≤ -4.2 |
| U44G G65A A66C A91G | ≤ -4.2 |
| G46A C85A A150C | ≤ -4.2 |
| U45G G80C A106G A119U A121U G124C G133U | ≤ -4.2 |
| C43U A66G C105A | ≤ -4.2 |
| C43U G59C U77A U111C | ≤ -4.2 |

| Variant | polymerase ribozyme fitness (log ratio) |
| --- | --- |
| C43U G58A U90C C132A G143U | ≤ -4.2 |
| U45A A52U U56A C76U | ≤ -4.2 |
| U45A A73U G83A G128U U151A | ≤ -4.2 |
| U45A G83U C85G C95U | ≤ -4.2 |
| U45A G59U G74U A121G G141A | ≤ -4.2 |
| C43U C96G | ≤ -4.2 |
| G46A C99A C114A C129A G141A | ≤ -4.2 |
| G46A U55A G58C G84C | -2.84 |
| G46C C76U | ≤ -4.2 |
| U45A C69A G88C A97C C125G | ≤ -4.2 |
| C43U G58C C95A U102C C103G C105G A110U | ≤ -4.2 |
| U45C A119C | -0.959 |
| U44A U55A C63G C85U C87G G92U | ≤ -4.2 |
| U44G A52C G92U G141A | ≤ -4.2 |
| U44A C85U | -4.17 |
| U44A U77A C95A G143A | ≤ -4.2 |
| U45G U53A C75A C93A A113G | ≤ -4.2 |
| U45A C99A A106U A121U C149G G152A | -4.01 |
| U45A C69A C95U C99G G112U C114U A147U | ≤ -4.2 |
| U44A G117U | ≤ -4.2 |
| U45G G128U | -3.86 |

| Variant | polymerase ribozyme fitness (log ratio) |
| --- | --- |
| U45C U56A A91G U111A | ≤ -4.2 |
| G46A G58A G83C | -1.17 |
| U45A C75U U90A C93U A119U G141C | ≤ -4.2 |
| U44G C54G C76G C85A | ≤ -4.2 |
| U44A A49C | -4.06 |
| U44A A49G | ≤ -4.2 |
| U44A A49U C54U G59U G92A A106U | ≤ -4.2 |
| G46C A52G C63A G71A A110G A113U | ≤ -4.2 |
| U45A U82G C129A U139A U145G | ≤ -4.2 |
| C43U U61G A64C U77G C85U A110U C116G | -4.02 |
| U45A C99A | ≤ -4.2 |
| U44A U61G A66C A91U C132U G141C | ≤ -4.2 |
| C43U A47U G59A C75A C93U G126C G133A | ≤ -4.2 |
| U45A A52C | ≤ -4.2 |
| U45G G92U C103A U104A | ≤ -4.2 |
| U44G G59A A60C G83A C95G C103G | ≤ -4.2 |
| U45C C57G G59U A66U G94A | ≤ -4.2 |
| G46A G50A C57U A60G G68A G83A G94U G141C | ≤ -4.2 |
| U45A G92A U127C G128A U130G | -4.06 |
| G46C A49C U56A C57U G62A C63A C69U G86C C99U G141C U145G C149U A150U | ≤ -4.2 |
